From patent publication US20190218532

Biological target: SpCas9::KQ (nuclease-deficient) KQ insertion (Streptococcus pyogenes) (UniProt Q99ZW2)
Experiment: cell_activity
Conditions: PAM TGG; half the fraction of GFP-positive cells of SpCas9

Chain of UniProt Q99ZW2 (Q99ZW2 whole entry): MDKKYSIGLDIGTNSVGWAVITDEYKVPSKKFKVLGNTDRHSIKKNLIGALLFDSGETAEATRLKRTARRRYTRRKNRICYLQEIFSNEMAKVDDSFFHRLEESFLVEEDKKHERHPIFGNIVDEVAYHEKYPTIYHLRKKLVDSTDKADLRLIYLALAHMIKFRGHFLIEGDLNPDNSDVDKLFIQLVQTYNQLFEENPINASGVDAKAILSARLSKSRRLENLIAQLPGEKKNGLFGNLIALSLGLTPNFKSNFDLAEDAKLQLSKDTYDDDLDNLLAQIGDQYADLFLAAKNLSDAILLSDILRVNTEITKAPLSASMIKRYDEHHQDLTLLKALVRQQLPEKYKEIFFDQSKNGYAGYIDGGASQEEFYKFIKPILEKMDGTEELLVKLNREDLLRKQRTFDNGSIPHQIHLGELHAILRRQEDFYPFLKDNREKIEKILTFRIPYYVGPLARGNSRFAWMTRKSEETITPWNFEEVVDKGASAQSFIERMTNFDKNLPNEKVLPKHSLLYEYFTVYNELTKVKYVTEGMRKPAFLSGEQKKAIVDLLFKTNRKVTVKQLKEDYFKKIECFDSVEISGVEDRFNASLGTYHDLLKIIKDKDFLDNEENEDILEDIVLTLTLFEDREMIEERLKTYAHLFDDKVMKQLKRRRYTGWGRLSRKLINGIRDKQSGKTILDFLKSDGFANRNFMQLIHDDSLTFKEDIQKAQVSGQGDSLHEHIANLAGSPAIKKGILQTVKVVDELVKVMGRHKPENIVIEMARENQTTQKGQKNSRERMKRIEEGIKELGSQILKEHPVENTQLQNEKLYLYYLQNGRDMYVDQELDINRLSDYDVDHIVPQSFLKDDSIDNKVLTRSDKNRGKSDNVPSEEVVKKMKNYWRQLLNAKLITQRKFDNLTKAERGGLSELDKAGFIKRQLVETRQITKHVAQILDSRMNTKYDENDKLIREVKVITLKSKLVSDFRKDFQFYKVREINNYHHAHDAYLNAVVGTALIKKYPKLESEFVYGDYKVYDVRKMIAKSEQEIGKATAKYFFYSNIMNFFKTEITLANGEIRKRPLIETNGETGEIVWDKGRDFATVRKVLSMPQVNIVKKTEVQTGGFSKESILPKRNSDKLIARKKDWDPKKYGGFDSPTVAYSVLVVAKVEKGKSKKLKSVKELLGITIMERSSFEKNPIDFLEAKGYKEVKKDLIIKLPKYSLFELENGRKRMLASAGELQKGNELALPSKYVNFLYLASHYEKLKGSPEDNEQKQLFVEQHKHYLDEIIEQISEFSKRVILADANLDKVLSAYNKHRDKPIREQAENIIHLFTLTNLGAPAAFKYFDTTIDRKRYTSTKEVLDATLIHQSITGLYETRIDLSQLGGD

Work on “CGAAAGGUUUUGCACUCGAC / CGAAAGGTTTTGCACTCGACTGG / CCAGTCGAGTGCAAAACCTTTCG” yielded a binding signal (fraction of SpCas9 GFP-positive cells) of 0.5.
